Laboratory results published in patent US20200323902.
Where a chain is given by its changes, count along the chain named.

Experiments:
Assay in all cases: cell_activity
[1] = system: T1, TcBuster V377T/E469K V377T,E469K (Tribolium castaneum); conditions: primary human CD3+ T cells, mean; nearly 2-fold over WT at day 14; unit inferred from figure legend
T1 sequence: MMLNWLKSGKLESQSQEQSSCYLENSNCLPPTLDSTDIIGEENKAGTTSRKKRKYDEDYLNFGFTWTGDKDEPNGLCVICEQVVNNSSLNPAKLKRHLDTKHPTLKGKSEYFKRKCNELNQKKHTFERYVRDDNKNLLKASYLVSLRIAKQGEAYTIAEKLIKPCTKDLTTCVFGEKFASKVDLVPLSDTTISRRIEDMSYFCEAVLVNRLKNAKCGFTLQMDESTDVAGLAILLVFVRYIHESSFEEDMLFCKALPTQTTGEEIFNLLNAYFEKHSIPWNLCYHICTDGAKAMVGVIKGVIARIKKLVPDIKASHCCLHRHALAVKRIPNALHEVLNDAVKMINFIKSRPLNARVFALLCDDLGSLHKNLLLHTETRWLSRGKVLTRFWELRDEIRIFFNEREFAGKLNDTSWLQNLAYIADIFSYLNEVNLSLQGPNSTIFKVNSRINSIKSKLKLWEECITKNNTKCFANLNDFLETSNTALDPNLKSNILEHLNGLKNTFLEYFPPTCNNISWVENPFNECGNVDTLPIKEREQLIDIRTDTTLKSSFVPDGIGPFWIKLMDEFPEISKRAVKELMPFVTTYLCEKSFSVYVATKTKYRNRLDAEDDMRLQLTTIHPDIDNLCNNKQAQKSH

[2] = system: T2, TcBuster D189A/V377T/E469K (Tribolium castaneum); conditions: primary human CD3+ T cells, mean; nearly 2-fold over WT at day 14; unit inferred from figure legend
T2 sequence: T1 sequence with D189A

[3] = system: Sleeping Beauty transposase SB11 (synthetic); conditions: primary human CD3+ T cells, mean; unit inferred from figure legend

Substance “mini-circle transposon with TcBuster and Sleeping Beauty IR/DRs, GFP cargo” has an activity [1] of 20.2 % GFP+ cells, an activity [2] of 24.1 % GFP+ cells and an activity [3] of 8.4 % GFP+ cells.
